In the nanobody polyreactivity screen of Harvey et al. (2022):

Test: yeast display, Sf9 membrane polyspecificity reagent, FACS + sequencing; frameworks hold sequencing errors
In short: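 After 36–48 hours of galactose induction, yeast (Saccharomyces cerevisiae BJ5465) displaying a synthetic nanobody library were stained at 4 °C for 1 hour with 10% biotinylated, detergent-solubilized Sf9 membrane reagent. Streptavidin microbeads enriched the stained cells before FACS sorting into low and high (top ~1%) gates on anti-HA and streptavidin fluorescence. Each clone's polyreactivity label reflects its gate of origin.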

Row | Sequence | polyreactivity (PSR sort gate)
1 | QVQLVESGGGLVQAGGSLRLICAASGKTFSDYAMGWYRQAPGKERELVAAISSSGVRTYYADSVKGRFTISRDNAKNTVYLQMNSLKPEDTAVDDCNAGYVRRYYPASGYGYWGQGTHVTVSS | high polyreactivity
2 | QVQLVESGGGLVQAGGSLRLICAASGLIFDYYAMGWYRQSPGKDRELVAAITSSSGITYYADSVKGRFTISRDNAKNTVSLQMNSLKPEDTAVYYCNADTRTTTRRFNPYDYWGQGTQVTVSS | low polyreactivity
3 | QVQLVESGGGLVQAGGSLRLICAASGLIFKVYAMGWYRQAPGKERELVAAITYSGGSTDYADSVKGRFTISRDNAKNTVYLQMNSLKPEDTAVYYCNVEKVGHVNSYGYDYWGQGTQVTVSS | low polyreactivity
4 | QVQLVESGGGLVQAGGSLRLICAASGLIFTHNTMGWYRQAPGKERELVAAITTSGGTTYYADSVKGRFTISRDNAKNTVYLQMNSLKPEDTAFYYCAARAPWPKWGYYYWGQGTQVTVSS | high polyreactivity
5 | QVQLVESGGGLVQAGGSLRLICAASGLIFVRYAMGWYRQAPGKERELVATITWSGGTTYADSVKGRFTISRDNAKNTVYLQMNSLNPEDTAVYYCAVEWPAWTDSDYPVGGHAFGYWGQGTQVTVSS | low polyreactivity
6 | QVQLVESGGGLVQAGGSLRLICAASGLIFWRNAMGWYRQAPGKERELVAAISRTGGNTYYADSVKGRFTISRDNAKNTVYLQMNSLKPEDTAVYYCAKDVGKGYGAYPLDYWGQGTQVTVSS | low polyreactivity
7 | QVQLVESGGGLVQAGGSLRLICAASGLIFYDNMGWYRQAPGKERELVAAISSSGGSTSYADSVKGRFTISRDNAKNTVYLQMNSLKPEDTAVYYCAADSYPAYLGFVGFDYWGQGTQVTVSS | low polyreactivity
8 | QVQLVESGGGLVQAGGSLRLICAASGLTFASYAMGWYRQAPGKERELVAAISSSGRTYYADSVKGRFTISRDNAKNTVYLQMNSLKPEDTAVYYCATRGLSRYYDYYYWGQGTQVTVSS | high polyreactivity
9 | QVQLVESGGGLVQAGGSLRLICAASGLTFFLYPMGWYRPAPGKERELVAAISSRGGSTYYADSVKGRFTISRDKAKNTVYLQMYSLKPEDTAVYYCADATKGDEDYWGQGTQVTVSS | high polyreactivity
10 | QVQLVESGGGLVQAGGSLRLICAASGLTFGDYTMGWYRQAPGKERELVAAISTSGGSTYYADSVKGRFTISRDNAKKTVYLLMNSLKPEDTAVYYCNARRTHTRSHYYYWGQGTQVTVSS | high polyreactivity
11 | QVQLVESGGGLVQAGGSLRLICAASGNIFAYYAMGWYRQAPGKERELVAGISRRAGNTYYADSVTGRFTISRDNAKNTVYLHMNSLKREDTAFYYCNKYTKRSGMDYWGQGTQVTVSS | high polyreactivity
12 | QVQLVESGGGLVQAGGSLRLICAASGNIFDLYAMGWYRQAPGKERELVAAITRSSSRTYYADSVKGRFTISRDNAKNTVSLQMNSLKPEDTAVYYCRAKQVNRVDYWGQGTQVTVSS | high polyreactivity
13 | QVQLVESGGGLVQAGGSLRLICAASGNIFSFNDMGWSRPAPGKERELVASITSGGRTNYADSVMGRFTISRDNAKNTVYLQMNSLKPEDTAVYYCAADYSVPTSQAYDYWGQGTQVTVSS | low polyreactivity
14 | QVQLVESGGGLVQAGGSLRLICAASGNIFYRYAMGWYRQAPGKERELVAAISGNSGNTYYADSVKGRFTISRDNAKNTVYLQMNSLKPEDTAVYYCNARVVVRRDYWGQGTQVTVSS | high polyreactivity
15 | QVQLVESGGGLVQAGGSLRLICAASGPTFYYYAMGWYTQAPGKERELVARISRGGSTNYADSVKGRFTISRDNAKNTVYLQMNSLKAEDTAVYYFAITISYTGGYWGYDYWGQGTQVTVSS | high polyreactivity
16 | QVQLVESGGGLVQAGGSLRLICAASGRIFCNYAMGWSRQAPGKERELVAAISSGGNTYYADSVKGRFTISRDNAKNTVYLQMNSLKPEDSAVYYCNEVYVGWQYGYDYWGQGTQVTVSS | low polyreactivity
17 | QVQLVESGGGLVQAGGSLRLICAASGRIFDDNAMGWYRQAPGKERELVATISSTGGRTYYADSVKGRFTISRDNAKNTVYLQMNSLKPEDTAVYYCAARRRQGGYYYWGQGTQVTVSS | high polyreactivity
18 | QVQLVESGGGLVQAGGSLRLICAASGRIFGIYAMGWYRQAPGKERELVASITGSSGSTNYADSVKGRFTISRDNAKNTVYLQMNSLKPEDTAVYYCAAERGYHGGGSGLYDYWGQGTQVTVSS | low polyreactivity
19 | QVQLVESGGGLVQAGGSLRLICAASGRIFGTNAIGWYRQAPGQEREVVATITRGGGNTYYADSVKGRFTISRDNAKNTVYLQMNSLKPEDTAVYYCAAKFHRFAWYAHYDYWGPGTQVTVSS | low polyreactivity
20 | QVQLVESGGGLVQAGGSLRLICAASGRIFGVYVMGLYRPAPGKERELVAAISWSGSHTYYADSVKGRFTISRDNAKNTVYLQMNSLKPEDTAVYYCNADSYPEYTGPGLDWYDYWGQGTQVTVSS | low polyreactivity
21 | QVQLVESGGGLVQAGGSLRLICAASGRIFKVYAMGWYRQAPGKERELVAVITGGGSTNYADSVKGRFTISRDNAKNTVDLQMNSLKPEDTAVYYCATEGYGHGGETDGGVYSELGSWGQGTQVTVSS | low polyreactivity
22 | QVQLVESGGGLVQAGGSLRLICAASGRIFLGYAMGWYRKAPGKERELVAAITSSSGITYYADSVKGRFTISRDNAKNSVYLQMNSLKPEDTAVYYCAARASSGRRTKRYNYWGQGTKVTVSS | low polyreactivity

Row | Sequence | polyreactivity (PSR sort gate)
23 | QVQLVESGGGLVQAGGSLRLICAASGRIFNSYAMGWFRQAPGKEMELVAAISRNGGITYYADSVKGRFTISRDNAKNTVYFQMNSLKPEDTAVYYCNADSSRRRYSSDYWGQGTQVTVSS | high polyreactivity
24 | QVQLVESGGGLVQAGGSLRLICAASGRIFPFYAMGWYRPEPGKERELVASISWSGGSTYYADSVKGRFTISRDNAKNPVYLQMNSLKPEDTAVFFCAARRWIADPGRIMDYWGQGTQVTVSS | high polyreactivity
25 | QVQLVESGGGLVQAGGSLRLICAASGRIFRGNVMGWYRQAPGKERELDAAISSGGRTYYADSVKGRFTISRDNAKNTVYLQMNSLKPEDSAVYYCAKAFREGEGKFDYWGQGTQVTVSS | high polyreactivity
26 | QVQLVESGGGLVQAGGSLRLICAASGRIFRRYAMGWYRQAPGKERELVASISLSGGSTYYADSVKGRFTISRDNAKNTVYLQMNSLKPEDTAVYYCAAVRPGVSNYGHWGQGTQLTVSS | high polyreactivity
27 | QVQLVESGGGLVQAGGSLRLICAASGRIFRVYAMGWYRQSPGKERELVAAISSRGGRTYYADSVKGRFTISRDNAKNTVYLQMKSMIPEDTAVYYCAADGRSSSRTTYRYDYWGQGTQVTVSS | high polyreactivity
28 | QVQLVESGGGLVQAGGSLRLICAASGRIFSRNAMGWYRQAPGKERELVAGISARGGRTYYADSVKGRFTISRDNAKNTVYLQMNSLKPEDTAVYYCNARTGYQDGTYGNDYWGQGTQVTVSS | high polyreactivity
29 | QVQLVESGGGLVQAGGSLRLICAASGRIFTYNGMGWYRQAPGKERELVAAISSGGSTYADSVKGRFTISRDNAKNTVYLQMNSLKPEDTAVYYCAAVKGYQGSSYQRVDWEGDYWGQGTQVSVSS | low polyreactivity
30 | QVQLVESGGGLVQAGGSLRLICAASGRIFVRNARGLYRQAPGTERELVASISQNGGRTYYADSVKGRFTISRDNAKNTVYLQMNSLKPEDTAVYYCARGRGGSRPGLDYWGQGTQVTVSS | high polyreactivity
31 | QVQLVESGGGLVQAGGSLRLICAASGRIFYAYAMGWYRQAPGKERELVATITYGGGSTYYADSVKGRFTISRDNAKNTVYLQMNSLKPEDTAVYYCAAVRTGSTLYTIRYYYWGQGTQVTVSS | low polyreactivity
32 | QVQLVESGGGLVQAGGSLRLICAASGRIFYPYAMGWYRPAPGKERELVATITRTGSTYYADSVKGRFTISRDNAKNTVYLHMNSLKPEDTAVYYCAVQRSYVGPRQYNYWGQGTQVTVSS | high polyreactivity
33 | QVQLVESGGGLVQAGGSLRLICAASGRIFYRYAMGWYRQAPGKERELVAAITWRGGSTYYADSVKGRFTISRDNAKNTVYLQMNSLKPEDTAVYYCAAAAYGVPWRSYLGVFKSHMDYWGQGTQVTVSS | high polyreactivity
34 | QVQLVESGGGLVQAGGSLRLICAASGRILYTYAMGWYRQAPGKERELVAGISRGGRTYYADSVKGRFTISRDNAKNTVYLQMNSLKPEDTAVYYCAARLQYGIQYRYDYWGQGTLVTVSS | high polyreactivity
35 | QVQLVESGGGLVQAGGSLRLICAASGRNFNHYAMGWYRQAPGKERELVAGITISCGSTYYADSVKGRFTISRDNSKNTVSLQINSLKPEVTAVYYCNAVYDYYRQSKWSMDYWGQGTQVTVSS | low polyreactivity
36 | QVQLVESGGGLVQAGGSLRLICAASGRSFDYYAMGWYRQAPGKERDLVAAITSGGTTTYYADSVKGRFTISRDNAKNTVYVQMNSLKPEDYAVYYCAKYPYHIYHTDGDYWGQGTQVTVSS | low polyreactivity
37 | QVQLVESGGGLVQAGGSLRLICAASGRTFALYAMGWYRQAPGKEREVVASISWRGGSTYYADSVKGRFTISRDTAKNTVYLQMNSLKPEDTAVDYCAADTWSYGPLNYRLEYWGQGTQVTVSS | low polyreactivity
38 | QVQLVESGGGLVQAGGSLRLICAASGRTFFRYGMGWYRQAPGKEREFVAAITRSGTTTYYADSVKGRFTISRDNAKNTVYLQMNSLKPEDTAVYYCDAQRAAPVDGKSDYWGQGTQVTLSS | low polyreactivity
39 | QVQLVESGGGLVQAGGSLRLICAASGRTFGIYAMGWYSPAPGKERELVATISWRGGSTYYADSVKGRFTISRDNAKNSVYLQMNSLKPEDTGVYYCAAGYYPYWGQGTQVTVSS | low polyreactivity
40 | QVQLVESGGGLVQAGGSLRLICAASGRTFGVNAMGWYRQAPGKERELVASIRWNGGSTYYADSVKGRFTISRDNAKNTVYLQMNSLKPEDTAVYYCNAVRRYRSREFDYWGQGTQVTVSS | low polyreactivity
41 | QVQLVESGGGLVQAGGSLRLICAASGRTFINYAMGWSRQAPGKERELVAAITTGGRTNYADSVKGRFTISRDNAKNTVYLQMKSLKPEDTAVYYCAADRYYWGRYTLNYWGQGTQVTVSS | low polyreactivity
42 | QVQLVESGGGLVQAGGSLRLICAASGRTFKQYAMGWSRQAPGTERELVAAITSSGGSTYYADSVKGRFTISRDNAKNTVYLQMNSLKPEDTAVYYCAAATRGSGRRYDYWGQGTQVTVSS | high polyreactivity
43 | QVQLVESGGGLVQAGGSLRLICAASGRTFVYYAMGWYRQAPGKERELVAAISGGGSKTYADSVKGRFTISRDNAKYTVYLLMNSLKPEDTAVYYCGKSVWRRYYYWGQGNQVTVSS | high polyreactivity
